Positions count from the first letter of the chain named. Numbers in names are those of the source.
T1: mFcγRIIb (Mus musculus, UniProt P08101)
T1 construct: extracellular region, C-terminal His- and GST-tag; also called mouse FcγRII
T1 sequence (receptor extracellular region, looked up): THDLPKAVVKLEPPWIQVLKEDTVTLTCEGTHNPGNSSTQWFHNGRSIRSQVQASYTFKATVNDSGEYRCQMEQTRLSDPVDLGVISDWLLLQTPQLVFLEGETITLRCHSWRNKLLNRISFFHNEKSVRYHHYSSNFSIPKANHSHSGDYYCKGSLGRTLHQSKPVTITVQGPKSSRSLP

T2: cynoFcγRIIb (Macaca fascicularis, UniProt A0A140HDP4)
T2 construct: extracellular region, C-terminal His- and GST-tag; also called cynomolgus monkey FcγRIIb
T2 sequence (receptor extracellular region): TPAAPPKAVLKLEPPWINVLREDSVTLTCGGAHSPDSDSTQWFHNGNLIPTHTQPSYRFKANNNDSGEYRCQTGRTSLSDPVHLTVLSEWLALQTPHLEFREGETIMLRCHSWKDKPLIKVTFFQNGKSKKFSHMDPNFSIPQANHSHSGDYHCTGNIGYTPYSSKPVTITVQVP

T3: mFcγRIV
T3 construct: also called mouse FcγRIV; not shown: C-terminal His and GST tags (named only on our card)
T3 chain: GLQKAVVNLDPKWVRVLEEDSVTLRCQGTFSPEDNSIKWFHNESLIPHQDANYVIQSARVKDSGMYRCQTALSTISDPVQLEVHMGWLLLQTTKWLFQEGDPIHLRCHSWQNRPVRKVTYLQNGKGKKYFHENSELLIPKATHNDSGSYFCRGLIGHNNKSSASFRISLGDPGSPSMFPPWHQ

T4: human FcγRIIa (131R), His- and GST-tagged (human, UniProt P12318 34-217)
T4 construct: Expressed in HEK293T cells, purified by nickel chromatography; also called R131 FcγRIIa; not shown: 6xHis and GST tags of the pTT5 vector
T4 sequence (looked up): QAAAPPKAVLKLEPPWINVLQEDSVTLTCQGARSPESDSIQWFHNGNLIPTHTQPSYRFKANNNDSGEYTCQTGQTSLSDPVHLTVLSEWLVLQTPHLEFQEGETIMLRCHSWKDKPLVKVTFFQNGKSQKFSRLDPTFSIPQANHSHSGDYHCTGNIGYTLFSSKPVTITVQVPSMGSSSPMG

T5: human FcγRIIb receptor protein (R&D Systems) (human, UniProt P31994 46-217)
T5 construct: Bought protein injected over captured antibody in Biacore; also called CD32b
T5 sequence (looked up): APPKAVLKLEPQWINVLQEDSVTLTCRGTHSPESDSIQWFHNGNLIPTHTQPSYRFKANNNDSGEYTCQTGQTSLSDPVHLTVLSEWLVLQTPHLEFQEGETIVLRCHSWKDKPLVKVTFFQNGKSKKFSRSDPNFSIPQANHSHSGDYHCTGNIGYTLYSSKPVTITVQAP

T6: human FcγRIIa (131H), His- and GST-tagged (human, UniProt P12318 34-217)
T6 construct: also called H131 FcγRIIa; HIIa; not shown: 6xHis and GST tags of the pTT5 vector
T6 sequence (looked up): T4 sequence (looked up) with R134H

B1: S267E/L328H (antibody, human IgG1, kappa)
heavy: not shown
light: DIVMTQSPATLSLSPGERATLSCRSSKSLQNVNGNTYLYWFQQKPGQSPQLLIYRMSNLNSGVPDRFSGSGSGTEFTLTISSLEPEDFAVYYCMQHLEYPITFGAGTKLEIKRTVAAPSVFIFPPSDEQLKSGTASVVCLLNNFYPREAKVQWKVDNALQSGNSQESVTEQDSKDSTYSLSSTLTLSKADYEKHKVYACEVTHQGLSSPVTKSFNRGEC
notes: HuAM4G7 anti-CD19 IgG1 (m1) with these Fc substitutions, EU index; copies: 2 + 2
B2: G236N/S267E (antibody, human IgG1, kappa)
heavy: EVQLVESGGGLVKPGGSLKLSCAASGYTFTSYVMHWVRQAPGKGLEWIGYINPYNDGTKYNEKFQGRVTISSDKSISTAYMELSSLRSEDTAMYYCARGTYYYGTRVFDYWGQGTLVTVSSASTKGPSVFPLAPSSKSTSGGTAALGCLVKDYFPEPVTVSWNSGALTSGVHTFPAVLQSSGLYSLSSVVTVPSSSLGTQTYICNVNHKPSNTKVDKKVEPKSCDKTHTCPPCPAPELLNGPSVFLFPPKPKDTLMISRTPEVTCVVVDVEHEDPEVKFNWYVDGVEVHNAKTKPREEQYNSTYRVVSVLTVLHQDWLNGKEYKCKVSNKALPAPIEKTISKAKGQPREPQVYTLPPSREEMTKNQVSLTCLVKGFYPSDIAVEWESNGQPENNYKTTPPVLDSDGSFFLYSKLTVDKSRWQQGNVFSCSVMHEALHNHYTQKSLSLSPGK
light: B1 light
notes: as for B1
B3: G236V (antibody, human IgG1, kappa)
heavy: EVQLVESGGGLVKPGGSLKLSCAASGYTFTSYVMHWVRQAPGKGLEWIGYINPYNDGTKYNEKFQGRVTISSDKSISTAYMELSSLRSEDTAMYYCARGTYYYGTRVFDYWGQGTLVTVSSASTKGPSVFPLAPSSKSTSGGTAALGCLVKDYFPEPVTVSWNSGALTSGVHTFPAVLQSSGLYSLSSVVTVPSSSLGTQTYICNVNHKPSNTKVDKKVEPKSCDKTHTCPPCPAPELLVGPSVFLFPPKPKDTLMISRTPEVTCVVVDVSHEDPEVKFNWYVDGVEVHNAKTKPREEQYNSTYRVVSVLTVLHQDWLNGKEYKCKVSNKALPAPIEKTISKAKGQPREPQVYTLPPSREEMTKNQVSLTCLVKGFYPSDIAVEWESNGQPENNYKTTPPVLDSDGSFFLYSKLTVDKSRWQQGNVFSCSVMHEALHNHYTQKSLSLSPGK
light: B1 light
notes: HuAM4G7 anti-CD19 IgG1 (m1) with this Fc substitution, EU index; copies: 2 + 2
B4: L235R (antibody, human IgG1, kappa)
heavy: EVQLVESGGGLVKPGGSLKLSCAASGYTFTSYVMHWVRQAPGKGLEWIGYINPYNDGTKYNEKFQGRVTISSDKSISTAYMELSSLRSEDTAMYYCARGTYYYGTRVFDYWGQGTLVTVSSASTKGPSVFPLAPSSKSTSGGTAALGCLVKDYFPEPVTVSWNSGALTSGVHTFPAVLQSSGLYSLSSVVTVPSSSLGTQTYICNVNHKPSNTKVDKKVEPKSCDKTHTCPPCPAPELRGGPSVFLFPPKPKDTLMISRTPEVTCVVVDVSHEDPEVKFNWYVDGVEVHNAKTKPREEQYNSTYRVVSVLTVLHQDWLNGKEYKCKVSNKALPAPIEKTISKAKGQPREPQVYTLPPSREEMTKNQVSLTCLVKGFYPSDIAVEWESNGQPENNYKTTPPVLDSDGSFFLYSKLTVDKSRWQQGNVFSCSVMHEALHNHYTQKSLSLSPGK
light: B1 light
notes: as for B3
B5: S267E/N325L (antibody, human IgG1, kappa)
heavy: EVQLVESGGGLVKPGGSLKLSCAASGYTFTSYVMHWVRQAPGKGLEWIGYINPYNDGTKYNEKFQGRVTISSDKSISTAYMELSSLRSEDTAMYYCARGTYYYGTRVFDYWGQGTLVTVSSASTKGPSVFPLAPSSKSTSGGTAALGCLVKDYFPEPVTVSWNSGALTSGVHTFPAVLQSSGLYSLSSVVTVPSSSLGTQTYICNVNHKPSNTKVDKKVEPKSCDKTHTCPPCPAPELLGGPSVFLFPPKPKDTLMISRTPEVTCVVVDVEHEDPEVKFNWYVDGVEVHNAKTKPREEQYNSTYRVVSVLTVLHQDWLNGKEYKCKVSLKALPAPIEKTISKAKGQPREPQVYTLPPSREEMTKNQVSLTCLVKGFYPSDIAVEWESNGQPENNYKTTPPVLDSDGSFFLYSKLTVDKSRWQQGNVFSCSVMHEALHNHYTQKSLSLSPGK
light: B1 light
notes: as for B1
B6: G236F (antibody, human IgG1, kappa)
heavy: not shown
light: B1 light
notes: as for B3
B7: G236E/S267E (antibody, human IgG1, kappa)
heavy: not shown
light: B1 light
notes: as for B1
B8: L234Q (antibody, human IgG1, kappa)
heavy: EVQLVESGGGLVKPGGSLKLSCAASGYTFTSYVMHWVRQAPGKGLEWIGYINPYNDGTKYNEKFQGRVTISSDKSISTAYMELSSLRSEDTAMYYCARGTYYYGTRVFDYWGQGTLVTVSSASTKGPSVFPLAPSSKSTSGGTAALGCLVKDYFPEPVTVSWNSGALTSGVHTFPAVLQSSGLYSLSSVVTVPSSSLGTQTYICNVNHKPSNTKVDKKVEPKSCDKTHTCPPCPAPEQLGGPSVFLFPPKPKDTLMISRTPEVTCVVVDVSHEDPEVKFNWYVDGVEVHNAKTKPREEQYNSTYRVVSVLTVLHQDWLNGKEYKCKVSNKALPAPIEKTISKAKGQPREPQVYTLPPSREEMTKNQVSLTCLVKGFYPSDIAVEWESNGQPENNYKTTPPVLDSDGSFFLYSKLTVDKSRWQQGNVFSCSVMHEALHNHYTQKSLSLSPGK
light: B1 light
notes: as for B3
B9: L234G (antibody, human IgG1, kappa)
heavy: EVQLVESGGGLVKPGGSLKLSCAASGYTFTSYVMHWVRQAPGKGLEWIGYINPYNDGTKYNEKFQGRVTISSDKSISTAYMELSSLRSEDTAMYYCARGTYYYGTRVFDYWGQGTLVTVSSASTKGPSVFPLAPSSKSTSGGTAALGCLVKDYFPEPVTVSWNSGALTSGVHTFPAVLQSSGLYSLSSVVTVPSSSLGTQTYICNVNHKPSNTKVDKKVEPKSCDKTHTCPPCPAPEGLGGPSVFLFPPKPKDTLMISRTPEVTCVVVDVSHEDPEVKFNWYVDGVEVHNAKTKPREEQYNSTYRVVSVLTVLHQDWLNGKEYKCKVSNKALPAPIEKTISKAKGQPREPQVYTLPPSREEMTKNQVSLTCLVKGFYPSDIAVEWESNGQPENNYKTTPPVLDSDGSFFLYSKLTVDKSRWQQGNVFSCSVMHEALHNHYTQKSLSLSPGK
light: B1 light
notes: as for B3
B10: G237E (antibody, human IgG1, kappa)
heavy: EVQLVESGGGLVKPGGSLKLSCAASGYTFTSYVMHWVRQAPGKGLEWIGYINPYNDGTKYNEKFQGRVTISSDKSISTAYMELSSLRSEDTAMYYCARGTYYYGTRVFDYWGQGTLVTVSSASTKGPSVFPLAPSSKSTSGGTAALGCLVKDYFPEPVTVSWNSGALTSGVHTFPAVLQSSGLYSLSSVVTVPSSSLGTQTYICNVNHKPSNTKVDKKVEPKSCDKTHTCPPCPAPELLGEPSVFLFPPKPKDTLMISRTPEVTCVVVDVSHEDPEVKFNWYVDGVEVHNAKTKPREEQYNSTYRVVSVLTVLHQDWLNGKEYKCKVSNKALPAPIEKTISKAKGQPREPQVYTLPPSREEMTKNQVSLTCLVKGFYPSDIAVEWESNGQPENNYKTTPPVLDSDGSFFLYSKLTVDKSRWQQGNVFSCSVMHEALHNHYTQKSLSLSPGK
light: B1 light
notes: as for B3
B11: G237K (antibody, human IgG1, kappa)
heavy: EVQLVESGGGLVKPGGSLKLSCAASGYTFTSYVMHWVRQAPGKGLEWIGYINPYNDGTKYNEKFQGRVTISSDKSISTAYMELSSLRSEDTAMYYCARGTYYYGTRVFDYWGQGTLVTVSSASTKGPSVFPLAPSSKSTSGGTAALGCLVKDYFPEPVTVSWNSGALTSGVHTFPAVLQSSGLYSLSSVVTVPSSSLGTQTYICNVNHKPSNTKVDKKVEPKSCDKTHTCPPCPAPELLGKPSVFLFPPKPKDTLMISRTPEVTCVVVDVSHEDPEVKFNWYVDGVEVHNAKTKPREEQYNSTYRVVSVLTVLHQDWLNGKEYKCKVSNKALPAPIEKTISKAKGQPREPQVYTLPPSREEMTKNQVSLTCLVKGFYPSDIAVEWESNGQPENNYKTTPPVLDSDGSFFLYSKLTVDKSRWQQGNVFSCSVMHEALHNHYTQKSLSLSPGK
light: B1 light
notes: as for B3
B12: G236R (antibody, human IgG1, kappa)
heavy: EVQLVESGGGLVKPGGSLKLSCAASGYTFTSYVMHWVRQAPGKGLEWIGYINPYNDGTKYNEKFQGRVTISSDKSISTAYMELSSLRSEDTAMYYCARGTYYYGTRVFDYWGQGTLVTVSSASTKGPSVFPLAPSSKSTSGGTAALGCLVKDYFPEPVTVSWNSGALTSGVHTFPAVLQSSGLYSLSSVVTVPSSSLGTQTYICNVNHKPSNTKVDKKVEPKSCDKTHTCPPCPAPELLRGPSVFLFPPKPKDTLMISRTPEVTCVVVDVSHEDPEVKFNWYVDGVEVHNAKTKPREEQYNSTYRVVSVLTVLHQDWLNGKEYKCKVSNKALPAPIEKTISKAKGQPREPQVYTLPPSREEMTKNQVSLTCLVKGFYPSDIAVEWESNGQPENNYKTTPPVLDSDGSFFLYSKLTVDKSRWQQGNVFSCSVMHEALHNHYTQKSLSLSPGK
light: B1 light
notes: as for B3
B13: G236P (antibody, human IgG1, kappa)
heavy: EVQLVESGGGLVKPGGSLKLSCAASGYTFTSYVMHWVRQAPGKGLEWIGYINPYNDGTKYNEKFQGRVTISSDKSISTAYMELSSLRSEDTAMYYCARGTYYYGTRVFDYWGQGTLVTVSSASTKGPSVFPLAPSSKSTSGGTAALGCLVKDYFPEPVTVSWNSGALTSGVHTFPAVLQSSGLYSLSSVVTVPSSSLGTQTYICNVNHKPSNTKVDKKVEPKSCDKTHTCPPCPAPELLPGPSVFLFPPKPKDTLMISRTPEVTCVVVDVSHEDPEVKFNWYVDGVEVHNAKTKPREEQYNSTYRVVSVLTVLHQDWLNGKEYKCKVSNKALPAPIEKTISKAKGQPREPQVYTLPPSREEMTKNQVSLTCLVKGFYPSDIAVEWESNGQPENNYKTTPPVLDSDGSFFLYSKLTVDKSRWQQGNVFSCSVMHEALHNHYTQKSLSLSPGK
light: B1 light
notes: as for B3
B14: G237H (antibody, human IgG1, kappa)
heavy: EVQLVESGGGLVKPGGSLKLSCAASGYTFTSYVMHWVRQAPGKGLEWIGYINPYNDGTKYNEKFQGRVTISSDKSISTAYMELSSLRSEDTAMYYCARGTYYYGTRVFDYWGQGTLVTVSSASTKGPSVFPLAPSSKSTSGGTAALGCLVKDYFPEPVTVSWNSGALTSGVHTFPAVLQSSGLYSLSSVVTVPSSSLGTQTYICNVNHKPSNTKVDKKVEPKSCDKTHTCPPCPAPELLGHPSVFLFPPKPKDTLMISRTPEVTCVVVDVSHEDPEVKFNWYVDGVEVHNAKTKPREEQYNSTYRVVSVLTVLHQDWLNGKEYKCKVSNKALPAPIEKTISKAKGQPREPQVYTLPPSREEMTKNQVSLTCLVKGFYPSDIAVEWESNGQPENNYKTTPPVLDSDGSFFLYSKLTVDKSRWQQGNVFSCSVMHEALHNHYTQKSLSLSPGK
light: B1 light
notes: as for B3

These binders were tested against T1, mFcγRIIb (assay: SPR).
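Wherever Fold vs WT IgG1 (off-rate) is given: fold improvement over WT IgG1 so higher means slower dissociation than WT.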

Fold vs WT IgG1 (off-rate) [fold] | Binder
1.11 | B1

The binders below were run against T2, cynoFcγRIIb (assay: SPR).

Fold vs WT IgG1 (off-rate) [fold] | Binder
0.587 | B2
0.703 | B3
0.42 | B1

Target: T3, mFcγRIV
Experiment: SPR

Fold vs WT IgG1 (off-rate) [fold] | Binder
0.347 | B4
0.24 | B5

What follows are binders tested against T7, cynoFcγRIIIa (Macaca fascicularis, UniProt Q8SPW2) (assay: SPR).
T7 construct: extracellular region, C-terminal His- and GST-tag; also called cynomolgus monkey FcγRIIIa

Fold vs WT IgG1 (off-rate) [fold] | Binder
0.138 | B6
0.327 | B7
0.379 | B8
0.113 | B9

The binders below were run against T4, human FcγRIIa (131R), His- and … (assay: SPR).

Fold vs WT IgG1 [fold] | Kd [µM] | binding result | Binder
3.27 | 0.263 |  | B2
0.00859 | 100 |  | B10
0.00859 | 100 |  | B11
0.00859 | 100 |  | B12
0.106 | 8.08 |  | B3
0.00859 | 100 |  | B6
0.0859 | 10 |  | B13
1.02 | 0.838 |  | B4
4.64 | 0.185 |  | B1
 |  | no binding | B14
36.5 | 0.0235 |  | B7
0.0372 | 23.1 |  | B8
41.5 | 0.0207 |  | B5
0.0859 | 10 |  | B9

What follows are binders tested against T8, human FcγRIIIa (158V), His- and GST-tagged (human, UniProt P08637 17-208) (assay: SPR).
T8 construct: also called V158 FcγRIIIa; VIIIa; not shown: 6xHis and GST tags of the pTT5 vector

binding result | Binder
no binding | B2

What follows are binders tested against T9, human FcγRI receptor protein (R&D Systems) (human, UniProt P12314 16-288) (assay: SPR).
T9 construct: also called soluble FcγRI; solFcγRI

Fold vs WT IgG1 [fold] | Kd [nM] | Binder
0.0355 | 9.27 | B2

Each binder was assayed against T5, human FcγRIIb receptor protein (R&D …) (assay: SPR).

Fold vs WT IgG1 [fold] | Kd [µM] | binding result | Binder
19.8 | 0.0742 |  | B2
0.0147 | 100 |  | B10
0.0147 | 100 |  | B11
0.0147 | 100 |  | B12
0.0147 | 100 |  | B3
0.0147 | 100 |  | B6
0.147 | 10 |  | B13
5.58 | 0.263 |  | B4
5.17 | 0.284 |  | B1
 |  | no binding | B14
11.4 | 0.129 |  | B7
0.147 | 10 |  | B8
31.5 | 0.0466 |  | B5
0.147 | 10 |  | B9

The binders below were run against T6, human FcγRIIa (131H), His- and … (assay: SPR).

binding result | Binder
no binding | B2

These binders were tested against T1, mFcγRIIb (assay: SPR, off-rate).
Description: (§1) Variants were screened for receptor affinity using Biacore™ technology, also referred to as Biacore herein, a surface plasmon resonance (SPR) based technology for studying biomolecular interactions in real time. SPR measurements were performed using a Biacore 3000 instrument (Biacore, Piscataway, N.J.). A protein A/G (Pierce Biotechnology) CM5 biosensor chip (Biacore) was generated using a standard primary amine coupling protocol. All measurements were performed using HBS-EP buffer (10 mM HEPES pH 7.4, 0.15 M NaCl, 3 mM EDTA, 0.005% vol/vol surfactant P20, Biacore). Antibodies at 20 nM or 50 nM in HBS-EP buffer were immobilized on the protein A/G surface and FcγRs were injected. After each cycle, the surface was regenerated by injecting glycine buffer (10 mM, pH 1.5). Data were processed by zeroing time and response before the injection of FcγR and by subtracting appropriate nonspecific signals (response of reference channel and injection of running buffer). Kinetic analyses were performed by global fitting of binding data with a 1:1 Langmuir binding model using BIAevaluation software (Biacore).
(§2) Variant antibodies were tested for their affinity to mouse or cynologous monkey FcγRs using Biacore SPR as described above. Specifically, antibodies were first immobilized on a protein A/G chip to high density, and then followed by injections of the extracellular domain of the mouse or cynologous monkey FcγR of interest. Both association and dissociation phases were tracked in real time using the Biacore technology.

binding result | Binder
no binding | B2
no binding | B10
no binding | B11
no binding | B12
no binding | B3
no binding | B6
no binding | B13
no binding | B4
no binding | B14
no binding | B7
no binding | B8
no binding | B5
no binding | B9

The binders below were run against T2, cynoFcγRIIb (assay: SPR, off-rate).
Description: as §1, §2

binding result | Binder
no binding | B10
no binding | B11
no binding | B12
no binding | B6
no binding | B13
no binding | B4
no binding | B14
no binding | B7
no binding | B8
no binding | B5
no binding | B9

Target: T3, mFcγRIV
Experiment: SPR, off-rate
Description: as §1, §2

binding result | Binder
no binding | B2
no binding | B10
no binding | B11
no binding | B12
no binding | B3
no binding | B6
no binding | B13
no binding | B1
no binding | B14
no binding | B7
no binding | B8
no binding | B9

What follows are binders tested against T7, cynoFcγRIIIa (assay: SPR, off-rate).
Description: as §1, §2

binding result | Binder
no binding | B2
no binding | B10
no binding | B11
no binding | B12
no binding | B3
no binding | B13
no binding | B4
no binding | B1
no binding | B14
no binding | B5

— US20130315910A1 (Xencor, published 2013)
